Test results from patent publication US20140294826A1 (TUFTS UNIVERSITY, published 2014).

T1: Botulinum neurotoxin serotype B (BoNT/B) holotoxin (Clostridium botulinum, UniProt P10844 2-1291)
T1 sequence: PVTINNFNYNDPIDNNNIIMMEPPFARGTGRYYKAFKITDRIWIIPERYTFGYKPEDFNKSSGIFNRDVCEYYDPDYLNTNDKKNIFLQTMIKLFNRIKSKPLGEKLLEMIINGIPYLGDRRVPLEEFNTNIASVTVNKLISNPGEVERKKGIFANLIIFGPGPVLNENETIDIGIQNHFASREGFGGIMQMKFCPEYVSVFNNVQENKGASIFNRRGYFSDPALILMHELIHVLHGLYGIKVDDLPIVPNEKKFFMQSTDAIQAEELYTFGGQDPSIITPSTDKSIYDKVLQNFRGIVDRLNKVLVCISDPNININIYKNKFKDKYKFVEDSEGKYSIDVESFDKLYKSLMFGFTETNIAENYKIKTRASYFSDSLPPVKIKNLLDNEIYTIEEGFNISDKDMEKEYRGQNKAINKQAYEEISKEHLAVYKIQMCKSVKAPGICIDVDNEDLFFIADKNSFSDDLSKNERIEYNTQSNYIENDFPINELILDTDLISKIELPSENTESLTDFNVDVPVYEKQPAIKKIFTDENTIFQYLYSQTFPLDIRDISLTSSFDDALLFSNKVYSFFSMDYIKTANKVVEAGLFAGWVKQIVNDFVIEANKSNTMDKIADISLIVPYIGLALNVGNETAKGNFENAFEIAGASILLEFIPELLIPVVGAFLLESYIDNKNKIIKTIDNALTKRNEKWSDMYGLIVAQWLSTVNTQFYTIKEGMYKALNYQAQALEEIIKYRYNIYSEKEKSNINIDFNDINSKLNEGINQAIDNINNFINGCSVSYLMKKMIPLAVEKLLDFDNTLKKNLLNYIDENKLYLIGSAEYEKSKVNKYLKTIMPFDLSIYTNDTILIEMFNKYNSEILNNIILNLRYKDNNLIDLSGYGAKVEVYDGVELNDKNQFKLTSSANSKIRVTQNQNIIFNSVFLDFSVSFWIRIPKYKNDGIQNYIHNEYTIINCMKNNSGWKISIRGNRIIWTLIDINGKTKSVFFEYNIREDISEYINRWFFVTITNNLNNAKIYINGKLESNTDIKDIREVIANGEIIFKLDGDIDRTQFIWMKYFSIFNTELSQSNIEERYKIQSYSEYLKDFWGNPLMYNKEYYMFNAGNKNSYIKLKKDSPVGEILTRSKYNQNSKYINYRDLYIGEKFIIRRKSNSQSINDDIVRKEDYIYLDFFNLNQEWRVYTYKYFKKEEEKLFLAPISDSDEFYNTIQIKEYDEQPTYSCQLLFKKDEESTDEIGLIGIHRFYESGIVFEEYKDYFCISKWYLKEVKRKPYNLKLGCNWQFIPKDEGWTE

B1: A9/D4 heterodimer VNA (designed binder)
chain: QVQLVETGGGLAQAGDSLRLSCVEPGRTLDMYAMGWIRQAPGEEREFVASISGVGGSPRYADSVKGRFTISKDNTKSTIWLQMNSLKPEDTAVYYCAAGGDIYYGGSPQWRGQGTRVTVSSEPKTPKPQGGGGSGGGGSGGGGSQVQLVESGGGLVQAGGSLRLSCAASGRINGDYAMGWFRQAPGEEREFVAVNSWIGGSTYYTDSVKGRFTLSRDNAKNTLSLQMNSLKPEDTAVYYCAAGHYTDFPTYFKEYDYWGQGTQVTVSSEPKTPKPQ
B2: Stx1-D4 (VHH)
VHH: QVQLVESGGGLVQAGGSLRLSCAASGRINGDYAMGWFRQAPGEEREFVAVNSWIGGSTYYTDSVKGRFTLSRDNAKNTLSLQMNSLKPEDTAVYYCAAGHYTDFPTYFKEYDYWGQGTQVTVSS
B3: ciB-A11 (VHH)
VHH: QVQLVEGGGGLVQPGGALRLSCAASVFGMDYYYIGWVRQAPGKEREGVSCISNIGRTHYADSVKGRFTISRDNAKNTVYLQMNSLKPEDTAVYYCAAAPLVGNYCPASYEYESWGQGTQVTVSS
B4: ciB-B5 (VHH)
VHH: QVQLVESGGGLVQPGGSLRLSCAASGQSLDNYIIGWFRQAPGKEREGVSCIDRTGTVTHYADSVKGRFTISTDNVKNTVYLEMNDLKPEDTATYFCAAERRWGVVSVCVISDYYFDSWGQGTQVTVSS
B5: ciB-A11/B5 heterodimer (designed binder)
chain: QVQLVEGGGGLVQPGGALRLSCAASVFGMDYYYIGWVRQAPGKEREGVSCISNIGRTHYADSVKGRFTISRDNAKNTVYLQMNSLKPEDTAVYYCAAAPLVGNYCPASYEYESWGQGTQVTVSSAHHSEDPSGGGGSGGGGSGGGGSQVQLVESGGGLVQPGGSLRLSCAASGQSLDNYIIGWFRQAPGKEREGVSCIDRTGTVTHYADSVKGRFTISTDNVKNTVYLEMNDLKPEDTATYFCAAERRWGVVSVCVISDYYFDSWGQGTQVTVSSAHHSEDPS
B6: A9/A5/G1 heterotrimer VNA (designed binder)
chain: QVQLVETGGGLAQAGDSLRLSCVEPGRTLDMYAMGWIRQAPGEEREFVASISGVGGSPRYADSVKGRFTISKDNTKSTIWLQMNSLKPEDTAVYYCAAGGDIYYGGSPQWRGQGTRVTVSSEPKTPKPQGGGGSGGGGSGGGGSQVQLVESGGGLVQPGGSLRLSCAALEFTLEDYAIAWFRQAPGKEREGVSCISKSGVTKYTDSVKGRFTVARDNAKSTVILQMNNLRPEDTAVYNCAAVRPVFVDSVCTLATRYTYWGEGTQVTVSSAHHSEDPGGGGSGGGGSGGGGSQVQLVESGGGLVQPGESLRLSCVASASTFSTSLMGWVRQAPGKGLESVAEVRTTGGTFYAKSVAGRFTISRDNAKNTLYLQMNSLKAEDTGVYYCTAGAGPIATRYRGQGTQVTVSSAHHSEDP
B7: Stx-A5 (VHH)
VHH: QVQLVESGGGLVQPGGSLRLSCAALEFTLEDYAIAWFRQAPGKEREGVSCISKSGVTKYTDSVKGRFTVARDNAKSTVILQMNNLRPEDTAVYNCAAVRPVFVDSVCTLATRYTYWGEGTQVTVSS
B8: Stx-A4 (VHH)
VHH: QVQLVESGGGLVQPGGSLRLSCAASGFTLGSYHIGWFRHPPGKEREGTSCLSSRGDYTKYAEAVKGRFTISRDNTKSTVYLQMNNLKPEDTGIYVCAAIRPVLSDSHCTLAARYNYWGQGTQVTVSS
B9: A5/D10 heterodimer VNA (designed binder)
chain: QVQLVESGGGLVQPGGSLRLSCAALEFTLEDYAIAWFRQAPGKEREGVSCISKSGVTKYTDSVKGRFTVARDNAKSTVILQMNNLRPEDTAVYNCAAVRPVFVDSVCTLATRYTYWGEGTQVTVSSAHHSEDPGGGGSGGGGSGGGGSQVQLVETGGLVQAGGSLRLSCAASGVPFSDYTMAWFRQAPGKEREVVARITWRGGGPYYGNSGNGRFAISRDIAKSMVYLHMDSLKPEDTAVYYCAASRLRPALASMASDYDYWGQGTQVSVSSEPKTPKPQ
B10: Stx1-A9 (VHH)
VHH: QVQLVETGGGLAQAGDSLRLSCVEPGRTLDMYAMGWIRQAPGEEREFVASISGVGGSPRYADSVKGRFTISKDNTKSTIWLQMNSLKPEDTAVYYCAAGGDIYYGGSPQWRGQGTRVTVSS
B11: Stx2-D10 (VHH)
VHH: QVQLVETGGLVQAGGSLRLSCAASGVPFSDYTMAWFRQAPGKEREVVARITWRGGGPYYGNSGNGRFAISRDIAKSMVYLHMDSLKPEDTAVYYCAASRLRPALASMASDYDYWGQGTQVSVSS
B12: G1/D10 heterodimer VNA (designed binder)
chain: QVQLVESGGGLVQPGESLRLSCVASASTFSTSLMGWVRQAPGKGLESVAEVRTTGGTFYAKSVAGRFTISRDNAKNTLYLQMNSLKAEDTGVYYCTAGAGPIATRYRGQGTQVTVSSAHHSEDPGGGGSGGGGSGGGGSQVQLVETGGLVQAGGSLRLSCAASGVPFSDYTMAWFRQAPGKEREVVARITWRGGGPYYGNSGNGRFAISRDIAKSMVYLHMDSLKPEDTAVYYCAASRLRPALASMASDYDYWGQGTQVSVSSEPKTPKPQ
B13: Stx2-H6 (VHH)
VHH: QVQLVETGGGLVQPGGSLRLSCAASGFSLDPYVIGWFRQAPGKEREGVSCITSRAASRTSVDSVNERFTISRDNAKNTVDLHINNLKPEDSGVYYCAAVPPAKLPLFSLCRSLPAKYDYWGQGTQVTVSS
B14: Stx2-G9 (VHH)
VHH: QVQLVESGGGLVQPGGSLTLSCTASGFTLNSYKIGWFRQAPGKEREGVSCINSGGNLRSVEGRFTISRDNTKNTVSLHMDSLKPEDTGVYHCAAAPALNVFSPCVLAPRYDYWGQGTQVTVSS
B15: Stx2-G1 (VHH)
VHH: QVQLVESGGGLVQPGESLRLSCVASASTFSTSLMGWVRQAPGKGLESVAEVRTTGGTFYAKSVAGRFTISRDNAKNTLYLQMNSLKAEDTGVYYCTAGAGPIATRYRGQGTQVTVSS
B16: Stx2-D2 (VHH)
VHH: QVQLVESGGGLVQPGGSLGLSCAMSGTTQDYSAVGWFRQAPGKEREGVSCISRSGRRTNYADSVRGRFTISRDNAKDTVYLQMNSLKPDDTAVYYCAARKTDMSDPYYVGCNGMDYWGKGTLVTVSS
B17: Stx2-A6 (VHH)
VHH: QVQLVESGGGLVQPGGSLKLSCAASGFTLADYVTVWFRQAPGKSREGVSCISSSRGTPNYADSVKGRATVSRNNANNTVYLQMNGLKPDDTAIYYCAAIRPARLRAYRECLSSQAEYDYWGQGTQVTVSS

The binders below were run against Shiga toxin 1 (Stx1) (Escherichia coli O157:H7) (UniProt P08026) (assay: not given).
Chain of Shiga toxin 1 (Stx1) (Escherichia coli O157:H7) (P08026 23-315): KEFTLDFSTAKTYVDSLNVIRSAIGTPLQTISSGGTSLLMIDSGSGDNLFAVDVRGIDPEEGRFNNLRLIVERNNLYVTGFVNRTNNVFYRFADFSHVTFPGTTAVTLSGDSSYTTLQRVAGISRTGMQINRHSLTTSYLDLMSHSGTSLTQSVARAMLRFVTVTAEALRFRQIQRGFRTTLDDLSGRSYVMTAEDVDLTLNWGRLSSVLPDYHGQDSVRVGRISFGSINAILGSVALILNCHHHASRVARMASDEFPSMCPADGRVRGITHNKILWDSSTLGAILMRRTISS

Binder | EC50 (read off the curve)
B1 | 0.6 nM
B2 | 0.5 nM

Each binder was assayed against T1, Botulinum neurotoxin serotype B … (assay: SPR; chip ligand for BoNT/B not described).

Binder | Kd
B3 | 0.84 nM
B4 | 0.97 nM
B5 | 5.3 nM

Biological target: Shiga toxin 1 (Stx1) (Escherichia coli O157:H7) (UniProt P08026)
Test: not given
Remark: another data set of the same source

Binder | EC50 (read off the curve)
B6 | 0.5 nM

The binders below were run against Shiga toxin 1 (Stx1) (Escherichia coli O157:H7) (UniProt P08026) (assay: SPR, Stx1 immobilised).

Binder | Kd
B7 | 12.5 nM
B8 | 7.2 nM
B6 | 0.46 nM
B1 | 1.2 nM
B9 | 9.2 nM
B10 | 7.6 nM
B2 | 0.128 nM

Each binder was assayed against Shiga toxin 1 (Stx1) (Escherichia coli O157:H7) (UniProt P08026) (assay: cell-based or functional assay).

Binder | IC50, Vero cell neutralization assay
B7 | 100 nM
B11 | > 1000 nM
B12 | > 100 nM
B13 | > 1000 nM
B8 | > 330 nM
B6 | 0.05 nM
B1 | 1 nM
B14 | > 1000 nM
B9 | 50 nM
B10 | 10 nM
B15 | > 1000 nM
B2 | > 1000 nM

The binders below were run against Shiga toxin 1 (Stx1) (Escherichia coli O157:H7) (UniProt P08026) (assay: dilution ELISA, HRP-anti-E-tag).

Binder | EC50
B7 | 15 nM
B11 | > 1000 nM
B12 | > 1000 nM
B16 | > 1000 nM
B13 | > 1000 nM
B8 | 30 nM
B6 | 0.5 nM
B1 | 0.6 nM
B14 | > 1000 nM
B17 | > 1000 nM
B9 | 30 nM
B10 | 10 nM
B15 | > 1000 nM
B2 | 0.5 nM
